Laboratory results from patent publication US20060104978A1, “Methods and compositions for PDGF-C activation and inhibition” (LUDWIG INSTITUTE FOR CANCER RESEARCH, priority 2003, published 2006).

Tests used:
latent PDGF-DD = latent PDGF-DD (Homo sapiens, UniProt Q9GZP0); assay: Cotransfection assay in COS-1 cells: protease plus full-length PDGF-D; format: cell-based; set-up: cotransfected with full-length PDGF-C (Li et al, 2000), full-length PDGF-D (Bergsten et al, 2001); expressed in transfected cells; host or cells: COS-1 cells; conditions: COS-1 conditioned medium, immunoblot
From the text: A cotransfection assay was established to identify serine proteases able to cleave and activate latent PDGF-CC. Expression plasmids encoding the relevant enzymes and full-length PDGF-C were cotransfected into COS-1 cells, and aliquots of the conditioned media from the transfectants were subjected to SDS-PAGE and immunoblotting using antibodies to the growth factor domain of PDGF-C. […] As a specificity control, the ability of tPA and NT to use full-length PDGF-DD as the substrate in the cotransfection assay was analysed. […] One difference in the latter results, as compared with the results from the cotransfection assay, was that purified tPA generated a second intermediate species of 32 kDa using latent PDGF-CC as the substrate. […]
To test the endogenous expression of PDGF-CC, subconfluent AG1523 cells and primary fibroblast cultures were cultured in serum-free DMEM overnight. […] In the case of the primary cultures, total protein concentration was measured and normalized (Bradford, 1976). […] PDGF-C and PDGF-D were detected by immunoblotting using affinity-purified polyclonal rabbit antibodies against PDGF-C (Li et al, 2000) and PDGF-D (Bergsten et al, 2001), respectively. The His6-tagged proteins were detected using an anti-His monoclonal antibody (C-terminal, Invitrogen). tPA was detected using sheep polyclonal antibodies against human tPA (ab9030, Abcam).

latent PDGF-CC = latent PDGF-CC (Homo sapiens, UniProt Q9NRA1); assay: In vitro cleavage of recombinant latent PDGF-CC with purified tPA; format: biochemical; set-up: His6-tagged recombinant full-length PDGF-CC; made in house; host or cells: Sf9 insect cells, baculovirus; conditions: 0.2-20 μg/ml tPA, 4 hours at 37° C., CNBr activated fibrinogen
Sequence of latent PDGF-CC (Q9NRA1 23-345): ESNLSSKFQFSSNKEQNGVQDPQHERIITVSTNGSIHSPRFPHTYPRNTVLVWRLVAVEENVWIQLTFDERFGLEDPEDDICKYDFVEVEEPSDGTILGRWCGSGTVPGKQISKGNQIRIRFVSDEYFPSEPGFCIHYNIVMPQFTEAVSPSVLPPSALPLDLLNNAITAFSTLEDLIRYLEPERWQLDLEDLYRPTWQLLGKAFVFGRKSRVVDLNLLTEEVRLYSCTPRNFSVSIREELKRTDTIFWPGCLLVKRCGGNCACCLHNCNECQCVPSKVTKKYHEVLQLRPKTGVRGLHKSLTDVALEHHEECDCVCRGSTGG
From the text: A cotransfection assay was established to identify serine proteases able to cleave and activate latent PDGF-CC. Expression plasmids encoding the relevant enzymes and full-length PDGF-C were cotransfected into COS-1 cells, and aliquots of the conditioned media from the transfectants were subjected to SDS-PAGE and immunoblotting using antibodies to the growth factor domain of PDGF-C. […] As a specificity control, the ability of tPA and NT to use full-length PDGF-DD as the substrate in the cotransfection assay was analysed. […] One difference in the latter results, as compared with the results from the cotransfection assay, was that purified tPA generated a second intermediate species of 32 kDa using latent PDGF-CC as the substrate. It is possible that this intermediate is the result of digestion by plasmin contamination in the tPA preparation, since the size of the fragment is similar to that of plasmincleaved PDGF-CC previously reported (Li et al, 2000).
Recombinant latent PDGF-CC and PDGF-DD were digested with human tPA in 100 mM Tris-HCl pH 7.5, 0.1% Tween 20, and 0.1 mg/ml CNBr activated fibrinogen (Sigma) for 4 hours at 37° C. using 0.2-20 μg/ml tPA purified from human melanoma cells (T7776, Sigma). The digestions were analyzed by SDS-PAGE under reducing conditions and immunoblotted using affinity-purified antibodies against PDGF-C and PDGF-D, respectively (see above).

“tPA: tissue plasminogen activator, secreted serine protease; expressed, purified from human melanoma cells or recombinant” was tested, and the “cleavage and activation of latent PDGF-DD by the coexpressed protease” value (latent PDGF-DD) was “neither of the two enzymes was able to cleave and activate latent PDGF-DD” and the “cleavage of recombinant latent PDGF-CC by purified tPA” value (latent PDGF-CC) was “PDGF-CC, but not PDGF-DD, is a substrate for tPA”.
